Measured values published in US6562613.
Entries after “also recorded” stand apart in the source; their conditions may differ.

Biological target: 14C-labeled type I procollagen purified from chick embryo fibroblasts, P02457
Sequence (P02457 23-1453, chain 1 of 2): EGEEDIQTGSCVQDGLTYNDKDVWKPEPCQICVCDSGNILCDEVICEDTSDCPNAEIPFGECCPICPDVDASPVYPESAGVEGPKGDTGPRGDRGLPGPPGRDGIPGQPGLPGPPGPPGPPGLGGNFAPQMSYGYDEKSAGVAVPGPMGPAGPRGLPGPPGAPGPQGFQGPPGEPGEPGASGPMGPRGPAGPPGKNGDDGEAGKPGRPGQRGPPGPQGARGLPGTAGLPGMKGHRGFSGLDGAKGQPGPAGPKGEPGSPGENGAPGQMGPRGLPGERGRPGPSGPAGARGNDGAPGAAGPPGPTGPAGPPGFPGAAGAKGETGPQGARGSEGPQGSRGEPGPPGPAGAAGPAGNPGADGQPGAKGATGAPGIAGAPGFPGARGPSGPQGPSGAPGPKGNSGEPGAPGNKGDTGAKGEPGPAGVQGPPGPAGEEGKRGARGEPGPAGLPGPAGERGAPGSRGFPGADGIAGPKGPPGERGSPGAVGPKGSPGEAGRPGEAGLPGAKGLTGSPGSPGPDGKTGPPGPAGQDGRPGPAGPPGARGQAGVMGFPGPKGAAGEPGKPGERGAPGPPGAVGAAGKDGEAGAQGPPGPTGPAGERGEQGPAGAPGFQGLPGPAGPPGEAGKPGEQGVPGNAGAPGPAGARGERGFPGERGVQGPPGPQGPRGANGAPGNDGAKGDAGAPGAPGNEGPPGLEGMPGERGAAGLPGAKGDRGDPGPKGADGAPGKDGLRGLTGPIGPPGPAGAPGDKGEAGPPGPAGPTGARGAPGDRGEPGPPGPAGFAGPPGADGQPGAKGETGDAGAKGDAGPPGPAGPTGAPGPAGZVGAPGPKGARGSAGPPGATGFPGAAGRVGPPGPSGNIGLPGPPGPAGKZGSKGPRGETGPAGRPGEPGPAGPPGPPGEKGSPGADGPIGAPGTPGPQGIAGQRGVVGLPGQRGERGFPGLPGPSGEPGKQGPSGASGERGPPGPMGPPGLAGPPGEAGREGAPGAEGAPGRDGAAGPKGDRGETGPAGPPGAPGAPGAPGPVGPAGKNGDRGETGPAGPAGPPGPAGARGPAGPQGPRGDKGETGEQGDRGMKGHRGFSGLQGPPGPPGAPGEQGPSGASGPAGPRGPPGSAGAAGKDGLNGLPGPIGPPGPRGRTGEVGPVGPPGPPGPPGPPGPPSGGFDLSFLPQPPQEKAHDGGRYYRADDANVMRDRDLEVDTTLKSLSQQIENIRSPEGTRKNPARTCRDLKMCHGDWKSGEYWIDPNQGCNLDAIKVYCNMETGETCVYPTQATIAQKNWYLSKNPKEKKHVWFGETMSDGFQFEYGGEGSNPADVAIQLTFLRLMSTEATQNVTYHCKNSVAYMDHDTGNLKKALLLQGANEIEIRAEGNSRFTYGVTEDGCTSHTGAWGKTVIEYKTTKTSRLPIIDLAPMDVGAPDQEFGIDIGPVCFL
Sequence (chain, as listed by the source, chain 2 of 2): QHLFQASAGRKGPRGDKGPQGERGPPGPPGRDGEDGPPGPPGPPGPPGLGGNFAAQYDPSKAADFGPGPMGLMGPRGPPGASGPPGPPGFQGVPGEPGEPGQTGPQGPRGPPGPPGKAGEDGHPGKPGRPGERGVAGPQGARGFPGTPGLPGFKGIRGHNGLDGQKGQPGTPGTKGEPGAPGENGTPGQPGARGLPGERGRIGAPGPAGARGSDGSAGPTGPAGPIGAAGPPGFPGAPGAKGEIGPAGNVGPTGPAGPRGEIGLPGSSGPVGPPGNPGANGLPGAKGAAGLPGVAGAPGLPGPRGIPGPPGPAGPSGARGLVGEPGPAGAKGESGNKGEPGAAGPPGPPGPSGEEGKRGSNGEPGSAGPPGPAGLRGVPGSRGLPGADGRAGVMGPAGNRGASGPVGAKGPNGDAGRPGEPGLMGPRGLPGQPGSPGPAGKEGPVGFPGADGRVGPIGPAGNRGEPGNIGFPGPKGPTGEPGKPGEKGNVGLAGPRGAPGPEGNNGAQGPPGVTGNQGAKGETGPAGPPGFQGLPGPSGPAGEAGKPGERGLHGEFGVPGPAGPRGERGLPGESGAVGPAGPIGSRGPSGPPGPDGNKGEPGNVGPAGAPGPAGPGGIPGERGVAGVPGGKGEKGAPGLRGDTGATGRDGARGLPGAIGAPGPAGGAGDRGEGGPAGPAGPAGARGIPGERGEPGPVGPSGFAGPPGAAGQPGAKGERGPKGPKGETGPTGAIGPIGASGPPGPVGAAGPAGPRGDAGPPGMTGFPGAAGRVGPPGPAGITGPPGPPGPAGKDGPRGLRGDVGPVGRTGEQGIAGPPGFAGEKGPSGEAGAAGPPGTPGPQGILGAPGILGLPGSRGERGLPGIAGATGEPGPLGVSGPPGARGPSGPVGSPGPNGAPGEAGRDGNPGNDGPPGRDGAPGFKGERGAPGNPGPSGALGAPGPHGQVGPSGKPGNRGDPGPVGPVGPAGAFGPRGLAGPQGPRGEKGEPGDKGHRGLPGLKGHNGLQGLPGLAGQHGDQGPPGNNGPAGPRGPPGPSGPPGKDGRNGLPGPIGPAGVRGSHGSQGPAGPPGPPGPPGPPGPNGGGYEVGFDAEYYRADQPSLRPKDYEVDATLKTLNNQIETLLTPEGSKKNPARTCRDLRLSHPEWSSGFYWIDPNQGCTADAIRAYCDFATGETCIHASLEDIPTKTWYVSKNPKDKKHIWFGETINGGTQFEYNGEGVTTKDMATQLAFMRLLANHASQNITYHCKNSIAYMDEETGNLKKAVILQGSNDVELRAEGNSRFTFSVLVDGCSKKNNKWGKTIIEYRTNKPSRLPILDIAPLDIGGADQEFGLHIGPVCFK

Protein	C-proteinase activity: cleavage of 14C-labeled type I procollagen, SDS-polyacrylamide gel	C-proteinase activity in a standard reaction system with 14C-labeled procollagen	specific activity relative to C-proteinase isolated from chick embryo tendons
procollagen C-proteinase pCP-1 (730 amino acids), recombinant, in medium of transfected HT-1080 cells (protein) AATSRPERVWPDGVIPFVIGGNFTGSQRAVFRQAMRHWEKHTCVTFLERTDEHSYILFTYRPCGCCSYVGPRGGGPQAISIGKNCDKFGIVVHELGHVVGFWHEHTRPDRDRHVSIVRENIQPGQEYNFLKMEPQEVESLGETYDFDSIMHYARNTFSRGIFLDTIVPKYEVNGVKPPIGQRTRLSKGDIAQARKLYKCPACGETLQDSTGNFSSPEYPNGYSAHMHCVWRISVTPGEKIILNFTSLDLYRSPLCWYDYVEVRDGFWRKAPLRGRFCGSKLPEPIVSTDSRLWVEFRSSSNWVGNGFFAVYEGICGGDVKKDYGHIQSPNYPDDYRPSKVCIWRIQVSEGFHVGLTFQSFEIERHDSCAYDYLEVRDGHSESSTLIGRYCGYEKPDDIKSTSSRLWLKFVSDGSINKAGFAVNFFKEVDECSRPNRGGCEQRCLNTLGSYKCSCHPGYELAPDKRRCEAACGGFLTKLNGSITSPGWPKEYPPNKNCIWQLVAPTQYRISLQFDFFETEGNDVCKYDFVEVRSGLTAHSKLHGKFCGSEKPEVITSQYNNMRVEFKSDNTVSKKGFKAHFFSENRPALQPPRGPPHQLKFRVQKRNRTPQ	Medium from neomycin-resistant clones expressing either pCP-1 or pCP-2 contained enzymatic activity that specifically cleaved type I procollagen into the products predicted by the introduction of C-proteinase		
procollagen C-proteinase pCP-2 (986 amino acids), recombinant, in medium of transfected HT-1080 cells (protein) AATSRPEPVWPDGVIPFVIGGNFTGSQRAVFPQAMRHWEKHTCVTFLERTDEDSYILFTYAPCGCCSYVGRRGGGPQAISMGKNCDKFGIVVHELGHVVGLWHEHTGPDRDRQVSIVRENIQPGQEYNFLKMEPQEVESLGETYDFDSIMHYARNTFSRGIFLDTIVPKYEVNGVKPPIGQRTRLRKGDIAQAPKLYKCPACGETLQDSTGNFSSPEYPNGYSAHMHCVWRICVTPGEKIILNFTSLDLYRSGLCWYQYVEVRDGFWRKAPLRGRFCGSKLPEPIVSTDSRLWVQFRSSSNWLGKGFFPVYEAMWGGDVKKDYGQIQSPNYPDDYRPSKVWMWRIQVSEGFDVGLTFQSFEIERHDSCGYDYLEVRDGHSESSTLIGRYCRYEKPDEIKSTSSPLWLKFVSDGSINKPGFAVNFFKEVDECSRPNRGGCEQRCLNTLGSYKWSCDPGYELPPEKRRCEAPCGGFLTKLNGSISRGGWPKEYPPNKNCIWQLVAPTQYRISLQFDFFETEGNDVCKYDFVEVRSGLTADSKLHGKFCGSEKPEVITSQYNNMRVEFKSDNTVSKKGFKAHFFSDKDECSKDNGGCQQDCVNTFGSYECQCRSGFVLHDNKHDCKEPGCDHKVTSTSGTITSPNWPDKYPSKKECTWAISSTPGHRVKLTFMEMDIESQPECAYDHLEVFDGRDAKAPVLGRFCGSKKPEPVLGTGSRMFLRFYSDNSVQRKGFQASHATECGGQVGADVKTKDLYSHAQFGDNNYPGGVDCEWVIVPEEGYGVEVLFQTFEVEDQTDCGYHYMELFDGYDSTAPRLGRYCGSGPPEEVYSAGDSVLVKFHSDDTITKKGFHLRYTSTKFQDTLHSRK	Medium from neomycin-resistant clones expressing either pCP-1 or pCP-2 contained enzymatic activity that specifically cleaved type I procollagen into the products predicted by the introduction of C-proteinase; also recorded: Complete cleavage of type I procollagen to pNα1 (I) chains, pNα2 (I) chains and the C-propeptide were obtained with medium from a clone transfected with pCP-2 and partially fractionated and concentrated by membrane filtration		
recombinant pCP-2 with a 6-histidine tag, expressed in E. coli, refolded and activated by limited digestion with chymotrypsin (protein) AATSRPEPVWPDGVIPFVIGGNFTGSQRAVFPQAMRHWEKHTCVTFLERTDEDSYILFTYAPCGCCSYVGRRGGGPQAISMGKNCDKFGIVVHELGHVVGLWHEHTGPDRDRQVSIVRENIQPGQEYNFLKMEPQEVESLGETYDFDSIMHYARNTFSRGIFLDTIVPKYEVNGVKPPIGQRTRLRKGDIAQAPKLYKCPACGETLQDSTGNFSSPEYPNGYSAHMHCVWRICVTPGEKIILNFTSLDLYRSGLCWYQYVEVRDGFWRKAPLRGRFCGSKLPEPIVSTDSRLWVQFRSSSNWLGKGFFPVYEAMWGGDVKKDYGQIQSPNYPDDYRPSKVWMWRIQVSEGFDVGLTFQSFEIERHDSCGYDYLEVRDGHSESSTLIGRYCRYEKPDEIKSTSSPLWLKFVSDGSINKPGFAVNFFKEVDECSRPNRGGCEQRCLNTLGSYKWSCDPGYELPPEKRRCEAPCGGFLTKLNGSISRGGWPKEYPPNKNCIWQLVAPTQYRISLQFDFFETEGNDVCKYDFVEVRSGLTADSKLHGKFCGSEKPEVITSQYNNMRVEFKSDNTVSKKGFKAHFFSDKDECSKDNGGCQQDCVNTFGSYECQCRSGFVLHDNKHDCKEPGCDHKVTSTSGTITSPNWPDKYPSKKECTWAISSTPGHRVKLTFMEMDIESQPECAYDHLEVFDGRDAKAPVLGRFCGSKKPEPVLGTGSRMFLRFYSDNSVQRKGFQASHATECGGQVGADVKTKDLYSHAQFGDNNYPGGVDCEWVIVPEEGYGVEVLFQTFEVEDQTDCGYHYMELFDGYDSTAPRLGRYCGSGPPEEVYSAGDSVLVKFHSDDTITKKGFHLRYTSTKFQDTLHSRK		Specific C-proteinase activity was observed (Lanes 1 to 4 in FIG. 5 ) after limited digestion with chymotrypsin	about 1/30-th of the specific activity of C-proteinase isolated from chick embryo tendons
recombinant pCP-2 with a 6-histidine tag, expressed in E. coli, refolded, without chymotrypsin activation (protein) LDFPDYTYDLAEEDDSEPLNYKDPCKAAAFLGDIALDEEDLRAFQVQQAVDVRRHTARKSSIKAAVPGNTSTPTCQSTNGQPQRGACGRWRGRSRSRRAATSRPEPVWPDGVIPFVIGGNFTGSQRAVFPQAMRHWEKHTCVTFLERTDEDSYILFTYAPCGCCSYVGRRGGGPQAISMGKNCDKFGIVVHELGHVVGLWHEHTGPDRDRQVSIVRENIQPGQEYNFLKMEPQEVESLGETYDFDSIMHYARNTFSRGIFLDTIVPKYEVNGVKPPIGQRTRLRKGDIAQAPKLYKCPACGETLQDSTGNFSSPEYPNGYSAHMHCVWRICVTPGEKIILNFTSLDLYRSGLCWYQYVEVRDGFWRKAPLRGRFCGSKLPEPIVSTDSRLWVQFRSSSNWLGKGFFPVYEAMWGGDVKKDYGQIQSPNYPDDYRPSKVWMWRIQVSEGFDVGLTFQSFEIERHDSCGYDYLEVRDGHSESSTLIGRYCRYEKPDEIKSTSSPLWLKFVSDGSINKPGFAVNFFKEVDECSRPNRGGCEQRCLNTLGSYKWSCDPGYELPPEKRRCEAPCGGFLTKLNGSISRGGWPKEYPPNKNCIWQLVAPTQYRISLQFDFFETEGNDVCKYDFVEVRSGLTADSKLHGKFCGSEKPEVITSQYNNMRVEFKSDNTVSKKGFKAHFFSDKDECSKDNGGCQQDCVNTFGSYECQCRSGFVLHDNKHDCKEPGCDHKVTSTSGTITSPNWPDKYPSKKECTWAISSTPGHRVKLTFMEMDIESQPECAYDHLEVFDGRDAKAPVLGRFCGSKKPEPVLGTGSRMFLRFYSDNSVQRKGFQASHATECGGQVGADVKTKDLYSHAQFGDNNYPGGVDCEWVIVPEEGYGVEVLFQTFEVEDQTDCGYHYMELFDGYDSTAPRLGRYCGSGPPEEVYSAGDSVLVKFHSDDTITKKGFHLRYTSTKFQDTLHSRK		No C-proteinase activity was observed when the recombinant protein was incubated in a standard reaction system without prior activation of the protein by digestion with chymotrypsin	
